We go through six molecules from publication PMC5613972, “A specific single-stranded DNA induces a distinct conformational change in the nucleoid-associated protein HU”.

In the series the target is T1, TtHU (Thermus thermophilus, UniProt P19436 2-97).
T1 sequence: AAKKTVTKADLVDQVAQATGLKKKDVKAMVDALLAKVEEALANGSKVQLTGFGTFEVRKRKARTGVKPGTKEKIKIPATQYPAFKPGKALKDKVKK
Nature of the series: EMSA; 1 uM DNA; EMSA: 20 mM Tris-HCl pH 7.5, 100 mM KCl, 37 °C, 1 h; CD: 20 mM phosphate pH 7.2, 100 mM KCl, 20 °C, 10 uM TtHU. The settings on record: protein: recombinant, tags: none stated (pET-11a), chain copies: 2.

For the molecule ATGACAACTAAAGCAACACCCAAAACA (ssDNA) [oligo C], under “single strand”, the binding result is “binds”.
For GGCCCCAGTGCTGCAATGATACCGCGAGAC (ssDNA) [oligo A], under “single strand”, the binding result was “binds”.

B1: oligo AB (dsDNA)
DNA 1: GGCCCCAGTGCTGCAATGATACCGCGAGAC
DNA 2: GTCTCGCGGTATCATTGCAGCACTGGGGCC
B1: for the setting “duplex of complementary oligos”, the binding result is reported as “binds”.

B2: oligo CD (dsDNA)
DNA 1: ATGACAACTAAAGCAACACCCAAAACA
DNA 2: TGTTTTGGGTGTTGCTTTAGTTGTCAT
In the case of B2, the binding result (duplex of complementary oligos) is “binds”.
On to TGTTTTGGGTGTTGCTTTAGTTGTCAT (ssDNA) [oligo D], for which the binding result (single strand) is listed as “binds”.
With GTCTCGCGGTATCATTGCAGCACTGGGGCC (ssDNA) [oligo B], the binding result (single strand) was “binds”.
